Source: US20090304651A1 (published 2009)

Experiments:
[1] = target: T1, recombinant human IGF-II (Insulin-like Growth Factor II) (human, UniProt P01344 25-91, biotinylated (Biotinyl-IGF-II, GroPep) where immobilised in SPR, site not stated; not biotinylated in ITC and as SPR analyte); assay: SPR, IGF-II immobilised, kinetic fit
T1 construct: also called IGF2; IGF-2
Method: (§1) Kinetic analysis by Surface Plasmon Resonance (SPR) was conducted on a BIAcore 3000 biosensor (BIAcore, Uppsala, Sweden) at 25° C. in HBS-EP (10 mM HEPES, pH 7.4, 150 mM NaCl, 3 mM EDTA, 0.005% surfactant P20) at a flow rate of 40 μl/min. […] Kinetic experiments consisted of a two minute injection of analyte followed by a 100 s dissociation phase in running buffer, after which the binding surface was regenerated with a 2 minute injection of 2 M MgCl₂. A blank flow cell was used for in-line reference subtraction of changes due to differences in refractive index of running buffer versus sample and a buffer-only injection was used to subtract instrument noise and drift. Injections were performed in duplicate for each concentration and in a randomised order. Kinetic parameters were determined by global fitting of sensorgrams to a two-state (conformational change) binding model using BIAevaluation software version 4.0.1. In all cases the minor component made an insignificant contribution to the overall affinity and as such only the kinetic parameters of the major binding component were used. For each interaction the dissociation affinity constant (KD) was also calculated by fitting of the response of each concentration at equilibrium to a steady-state affinity model using BIAevaluation. In order to investigate the influence of ionic strength, kinetic experiments were conducted in HBS-EP running buffers containing the desired NaCl concentration. In each case, analyte samples were made up in the appropriate running buffer prior to injection.

[2] = target: T1, recombinant human IGF-II (Insulin-like …); assay: SPR, IGF-II immobilised, steady state
Method: as §1, with “In order to investigate the influence of ionic strength, kinetic experiments were conducted in HBS-EP running buffers containing the desired NaCl concentration. In each case, analyte samples were made up in the appropriate running buffer prior to injection.” left out

[3] = target: T2, recombinant human IGF-I (Insulin-like Growth Factor I) (human, UniProt P05019 49-118, biotinylated (Biotinyl-IGF-I, GroPep), site not stated); assay: SPR, biotinylated IGF-I immobilised
T2 construct: also called IGF1; Biotinyl-IGF-I
T2 sequence (P05019 49-118 limits assumed): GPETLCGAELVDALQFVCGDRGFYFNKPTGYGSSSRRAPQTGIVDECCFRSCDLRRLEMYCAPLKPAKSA
Method: (§2) Kinetic experiments consisted of a two minute injection of analyte followed by a 100 s dissociation phase in running buffer, after which the binding surface was regenerated with a 2 minute injection of 2 M MgCl₂. A blank flow cell was used for in-line reference subtraction of changes due to differences in refractive index of running buffer versus sample and a buffer-only injection was used to subtract instrument noise and drift. Injections were performed in duplicate for each concentration and in a randomised order. Kinetic parameters were determined by global fitting of sensorgrams to a two-state (conformational change) binding model using BIAevaluation software version 4.0.1. In all cases the minor component made an insignificant contribution to the overall affinity and as such only the kinetic parameters of the major binding component were used. For each interaction the dissociation affinity constant (KD) was also calculated by fitting of the response of each concentration at equilibrium to a steady-state affinity model using BIAevaluation. In order to investigate the influence of ionic strength, kinetic experiments were conducted in HBS-EP running buffers containing the desired NaCl concentration. In each case, analyte samples were made up in the appropriate running buffer prior to injection.
(§3) The affinity of versions of Fc-tagged domain 11 fusion proteins, and domain 11 constructs, for IGF-II were compared using surface plasmon resonance (BIAcore 3000). Attempts were made to immobilize Fc-tagged domain 11 proteins upon a sensor chip surface (CM5 and CM5-proteinA) but we encountered similar problems as described above with immobilised monomeric domain 11. Instead, immobilisation of biotinylated IGF-I and IGF-II on separate flow cells of a streptavidin coated sensor chip (BIAcore) generated reproducible sensorgram profiles when Fc-tagged and untagged domain 11 proteins were passed over the surface as analytes. The Fc-tagged domain 11 kinetic data performed in triplicate generated sensorgrams that were analyzed using a bivalent analyte model.

[4] = target: T1, recombinant human IGF-II (Insulin-like …); assay: SPR, biotinylated IGF-II immobilised
Method: as §2, with “In order to investigate the influence of ionic strength, kinetic experiments were conducted in HBS-EP running buffers containing the desired NaCl concentration. In each case, analyte samples were made up in the appropriate running buffer prior to injection.” left out
(§4) The affinity of versions of Fc-tagged domain 11 fusion proteins, and domain 11 constructs, for IGF-II were compared using surface plasmon resonance (BIAcore 3000). […] The Fc-tagged domain 11 kinetic data performed in triplicate generated sensorgrams that were analyzed using a bivalent analyte model.

[5] = target: T1, recombinant human IGF-II (Insulin-like …); assay: SPR, IGF-II immobilised
Method: as §2, §3

[6] = target: T1, recombinant human IGF-II (Insulin-like …); assay: SPR, IGF-II immobilised, bivalent analyte model
Method: as §2, with “In order to investigate the influence of ionic strength, kinetic experiments were conducted in HBS-EP running buffers containing the desired NaCl concentration. In each case, analyte samples were made up in the appropriate running buffer prior to injection.” left out
as §4

[7] = target: T1, recombinant human IGF-II (Insulin-like …); assay: SPR, IGF-II immobilised, bivalent analyte model, ka1
Method: as §2, with “In order to investigate the influence of ionic strength, kinetic experiments were conducted in HBS-EP running buffers containing the desired NaCl concentration. In each case, analyte samples were made up in the appropriate running buffer prior to injection.” left out
as §4

[8] = target: T1, recombinant human IGF-II (Insulin-like …); assay: SPR, IGF-II immobilised, bivalent analyte model, kd1
Method: as §2, with “In order to investigate the influence of ionic strength, kinetic experiments were conducted in HBS-EP running buffers containing the desired NaCl concentration. In each case, analyte samples were made up in the appropriate running buffer prior to injection.” left out
as §4

T1 sequence (P01344 25-91 limits assumed): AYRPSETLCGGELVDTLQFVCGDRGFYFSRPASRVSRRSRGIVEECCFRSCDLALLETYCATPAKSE

Kd [1] [nM] | koff [1] [s⁻¹] | kon [1] [M⁻¹ s⁻¹] | Kd [2] [nM] | binding result [3] | binding result [4] | Ru response amplitude relative to 11-Fc at equal concentrations [5] [fold] | molar affinity relative to 11-Fc [5] [fold] | Kd [6] [nM] | kon [7] [M⁻¹ s⁻¹] | koff [8] [s⁻¹] | Binder
114 | 0.063 | 553000 | 114 |  |  |  |  |  |  |  | IGF2R domain 11 expressed in E. coli (pET-15), refolded and purified (receptor, also called purified 11 from E. coli; native domain 11 protein) NEHDDCQVTNPSTGHLFDLSSLSGRAGFTAAYSEKGLVYMSICGENENCPPGVGACFGQTRISVGKANKRLRYVDQVLQLVYKDGSPCPSKSGLSYKSVISFVCRPEAGPTNRPMLISLDKQTCTLFFSWHTPLACEQAT
 |  |  |  | no binding | no binding |  |  |  |  |  | Fc-tagged null mutant IGF2R domain 11 (11^I1572A-Fc), human IgG1 Fc at the C-terminus, homodimer from Drosophila D.Mel-2 cells (Fc fusion, N-glycosylated with two 982.9 Da molecules of Man3GlcNAc2, not shown: human IgG1 Fc domain, amplified from IMAGE clone 4851063) NEHDDCQVTNPSTGHLFDLSSLSGRAGFTAAYSEKGLVYMSICGENENCPPGVGACFGQTRASVGKANKRLRYVDQVLQLVYKDGSPCPSKSGLSYKSVISFVCRPEAGPTNRPMLISLDKQTCTLFFSWHTPLACEQAT
 |  |  |  | no binding |  | ~2 | ~2 | 1.79 | 2.23e+06 | 0.00401 | Fc-tagged enhanced mutant IGF2R domain 11 (11^E1544K-Fc), human IgG1 Fc at the C-terminus, homodimer from Drosophila D.Mel-2 cells (Fc fusion, N-glycosylated with two 982.9 Da molecules of Man3GlcNAc2, not shown: human IgG1 Fc domain, amplified from IMAGE clone 4851063) NEHDDCQVTNPSTGHLFDLSSLSGRAGFTAAYSKKGLVYMSICGENENCPPGVGACFGQTRISVGKANKRLRYVDQVLQLVYKDGSPCPSKSGLSYKSVISFVCRPEAGPTNRPMLISLDKQTCTLFFSWHTPLACEQAT
